Data reported in patent publication US7597889.

Legend:
human FcγRI (human) [1] = target: human FcγRI (human) (UniProt P12314); experiment: fluorescent staining of FcγRI transfectants, flow cytometry
human FcγRI (human) [2] = target: human FcγRI (human) (UniProt P12314); experiment: rosetting of FcγRI-bearing B2KA cells by R2R2 RBC coated with Ab; coating concentration
human FcγRI (human) [3] = target: human FcγRI (human) (UniProt P12314); experiment: rosetting after centrifuging RBC coated with 1 µg/ml Fog-1 G1 together with B2KA cells
FcγRIIa 131H/H (human) = FcγRIIa 131H/H (human) (UniProt P12318); experiment: staining of 3T6+FcγRIIa 131H/H cells with complexed Ab (summary)
Chain of UniProt P12318 (P12318 34-317): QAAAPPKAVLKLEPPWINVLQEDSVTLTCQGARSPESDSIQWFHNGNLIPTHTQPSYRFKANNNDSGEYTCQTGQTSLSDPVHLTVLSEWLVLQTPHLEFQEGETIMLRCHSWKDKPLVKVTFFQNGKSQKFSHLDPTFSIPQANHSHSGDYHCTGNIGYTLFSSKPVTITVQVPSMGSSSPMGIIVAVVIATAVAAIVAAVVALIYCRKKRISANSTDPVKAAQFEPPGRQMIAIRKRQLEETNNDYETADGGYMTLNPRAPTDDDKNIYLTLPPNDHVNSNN

Chain of UniProt P12314 (P12314 16-374): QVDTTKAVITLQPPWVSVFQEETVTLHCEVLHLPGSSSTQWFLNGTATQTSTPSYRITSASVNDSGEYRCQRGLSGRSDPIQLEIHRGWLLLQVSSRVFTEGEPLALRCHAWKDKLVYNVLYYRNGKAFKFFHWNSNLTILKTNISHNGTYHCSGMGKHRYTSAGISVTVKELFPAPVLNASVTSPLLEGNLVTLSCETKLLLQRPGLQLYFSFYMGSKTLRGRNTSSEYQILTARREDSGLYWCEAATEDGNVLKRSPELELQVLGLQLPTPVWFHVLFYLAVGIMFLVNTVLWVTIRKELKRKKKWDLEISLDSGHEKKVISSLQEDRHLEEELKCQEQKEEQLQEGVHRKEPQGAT

Row | Substance | fold reduction of binding against the parent subclass (human FcγRI (human) [1]) [fold] | other results
1 | CAMPATH-1 G4Δc (antibody) | > 10000 | 
2 | Fog-1 G1Δa (antibody) |  | EC50 (human FcγRI (human) [2]): 0.1 mg/L
3 | Fog-1 G4Δb (antibody) | > 10000 | 
4 | Fog-1 G1 (antibody) |  | EC50 (human FcγRI (human) [2]): 0.1 mg/L; percent of B2KA cells with rosettes (human FcγRI (human) [3]): 95%
5 | Fog-1 G1Δb (antibody) | > 10000 | fold lower activity than IgG1 (FcγRIIa 131H/H (human)): 50 fold
6 | Fog-1 G4Δc (antibody) | > 10000 | 
7 | CAMPATH-1 G1Δac (antibody) | > 10000 | 
8 | CAMPATH-1 G1Δab (antibody) | > 10000 | 
9 | Fog-1 G1Δc (antibody) | > 10000 | fold lower activity than IgG1 (FcγRIIa 131H/H (human)): 10 fold

Continued, in another order:

Row | fold reduction of binding against the parent subclass (human FcγRI (human) [1]) [fold] | Substance | other results
10 | > 10000 | CAMPATH-1 G1Δc (antibody) | 
11 | > 10000 | CAMPATH-1 G1Δb (antibody) | 
12 | > 10000 | CAMPATH-1 G4Δb (antibody) | 
13 | > 10000 | Fog-1 G1Δac (antibody) | 
14 | > 10000 | Fog-1 G1Δab (antibody) | 
